Results from patent US20260035692, “METHOD FOR SCREENING FOR APTAMER BY SEQUENCING” (GeneMind Biosciences Co., Ltd., published 2026).

Tests used:
Settings in all cases: tags: Alexa Fluor 647 label (SA-alexa647); chain copies: 4
streptavidin (SA) [1] = target: T1, streptavidin (SA) (UniProt P22629 P22629:25-183); assay: flowcell clusters in mixture library; signal graded with 1.95-500 nM SA-alexa647, weak below 31 nM
Experimental: (3) Into the four flow channels of the sequencing flowcell (L1, L2, L3, and L4 respectively), SA-alexa647 at concentrations of 500 nmol/L, 125 nmol/L, 31.25 nmol/L, and 1.95 nmol/L was introduced, respectively, and the flowcell was incubated for 30 minutes for in situ hybridization. After incubation, 300 μL of PBST was used to wash the channels to remove unreacted fluorescently labeled SA-alexa647.

streptavidin (SA) [2] = target: T1, streptavidin (SA); assay: NY selection: no signal with 500 nM SA alone
Experimental: (3) After sequencing was completed, target protein SA at a concentration of 500 nmol/L and a combination of target proteins SA and 3RA at 500 nmol/L each were sequentially introduced into the flowcell, followed by incubation. After each incubation was completed, 300 μL of PBST was used to wash the channels. After washing was completed, a 640 nm laser was used for excitation, and the surface of the solid carrier was imaged to collect the corresponding emission signals. Before introducing the next target at each time, the channels were washed with 750 μL of NaOH to remove the previously bound target.

streptavidin (SA) [3] = target: T1, streptavidin (SA); assay: 0 of 2808 (30% mix) and 2 of 575 (10% mix) target-bound clusters were reverse strand

T1 sequence (P22629 25-183, one chain of several): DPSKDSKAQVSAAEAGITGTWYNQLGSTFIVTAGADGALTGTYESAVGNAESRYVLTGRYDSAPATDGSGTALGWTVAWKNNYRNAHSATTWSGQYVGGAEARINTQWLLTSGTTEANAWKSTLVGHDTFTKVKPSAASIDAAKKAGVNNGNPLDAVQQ

Binder | binding result (streptavidin (SA) [2]) | also measured
tagged SA-positive aptamer (GGCTAC tag) (ssDNA) DNA: GGCTACAGCAGCACAGAGGTCAGATGGACGCACCGATCGCAGGTTCCGAAATGACTACTTGGTTGCCTATGCGTGCTACCGTGAAGGCTAC | – | binding result (streptavidin (SA) [1]): binds
3RA positive aptamer sequence 4 (ssDNA) DNA: AATGGTCCAGCACTCCACGCATAACGAATAGGTCCTAAACGAGGGGTCAGGGAAGTCGCCGGTTATGCGTGCTACCGTGAA | no binding | –
SA-positive aptamer reverse strand (ssDNA, [NONE]) DNA: TTCACGGTAGCACGCATAGGCAACCAAGTAGTCATTTCGGAACCTGCGATCGGTGCGTCCATCTGACCTCTGTGCTGCT | – | binding result (streptavidin (SA) [3]): no binding
3RA positive aptamer sequence 1 (ssDNA) DNA: TCACGGTAGCACGCATAGGGGAGGATTCCGACTAAGTTTCCGTCGCATGAGCGTTGCTATGCGTGGAGTGCTGAAGTTGGC | no binding | –
3RA positive aptamer sequence 2 (ssDNA) DNA: CGAAGTTCAGCACTCCACGCATAGCCCTCGGAGGTCTACGAGAATGCCTACAGCCCTGTGCCCTATGCGTGCTACCGTGAA | no binding | –
3RA positive aptamer sequence 3 (ssDNA) DNA: CACGGTAGCACGCATAACGCCGAGTTCCATTATAAAGTCCGCGCCCGACTACCCCCGTTATGCGTGGAGTGCTGGACATGC | no binding | –
